Results: the nanobody polyreactivity screen of Harvey et al. (2022)

Experiment: yeast display, Sf9 membrane polyspecificity reagent, FACS + sequencing; frameworks hold sequencing errors
Procedure, shortened: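 Galactose induction of a Saccharomyces cerevisiae BJ5465 synthetic nanobody display library ran 36–48 hours. The cells were then stained for 1 hour at 4 °C with 10% biotinylated, detergent-solubilized Sf9 membrane reagent, pulled down on streptavidin microbeads and FACS-sorted into low and high (top ~1%) gates on expression and reagent-binding fluorescence. Labels for polyreactivity follow the gate of origin.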

Sequence	polyreactivity (PSR sort gate)
QVQLVESGGGLVQAGGSLRLSSAASGLIFVHYAMGWSRQAPGKERELVSAISFRGGRTYYADSVKGRFTISRDNAKNTVYVQMNSLKPEDTAVSYCAATIKAYPTPLLGDYWGQGTQVTVSS	high polyreactivity
QVQLVESGGGLVQAGGSLRLSSAASGNTFWHYAMGWYRQAPGKERELVAAITRSTGSTYYADSVKGRFTISRDNAKYSVYLQMNSLKPEDTAVYYCAADFYRHYFRVDSWGQGTQVTVSS	low polyreactivity
QVQLVESGGGLVQAGGSLRLSSAASGRIFAGNAMGWYRQAPGKERELVAVISKGGGRTYYADSVKGRFTISRDNAKNTVYLQMNSLKPEDTAVYDCDAEGSYWFRRYGYWGQGTQVTVSS	high polyreactivity
QVQLVESGGGLVQAGGSLRLSSAASGRIFGKYAMGWYRQAPGKERELVAAIRITGGSTYYADSVKGRFTISRDNAKNTVYLQMNSLKPEDTAVYYSAAVYKYADVIYDYWGQGTQVTVSS	high polyreactivity
QVQLVESGGGLVQAGGSLRLSSAASGRIFNPNGMGWYRQAPGKDRELVAVITRSGTSTYYADSVKGRFTISREYAKNTFYRQMYSLKPEDTAVYYCNAGKKYVDYGVLSSRYYWGQGTQVTVSS	low polyreactivity
QVQLVESGGGLVQAGGSLRLSSAASGRIFRGNEMGWYRQAPGKEREFVAAISWGGGSTYYADSVKGRFTISRDNAKKTVYLQMNSLKPEDTAVYYCAAGSPYAYNYWGQGTQVTVSS	high polyreactivity
QVQLVESGGGLVQAGGSLRLSSAASGRIFSRNGMGWYRPAPGKERELVAAIRRYGGSTYYADSVKGRFTISRDNEKNTVNLQMNSLKAEDTAVFFCAAEPYGGGVKHSAYDYWGQGTQVTVSS	low polyreactivity
QVQLVESGGGLVQAGGSLRLSSAASGRIFTIYAMGWYRQAPGKERELVATISRRGGSTYYADSVKGRFTISRDNAKNTVYLQMNSLKPEDTAGYYCAADSVITWWAYDYWGQGTQVTVSS	high polyreactivity
QVQLVESGGGLVQAGGSLRLSSAASGRIFTVYAMGWYRQAPGKERELVAAITRGGGGTYYADSVKGRFTITRDYAKNTDYLQMNRLKPEDTAVYYCAATHNQVVARYSFNYWGQGTQVTVSS	high polyreactivity
QVQLVESGGGLVQAGGSLRLSSAASGRIFYGYAMGWSRQAPGKERELVAAITRSSSTYFADSVKGRFTISRDNAKNTVYLQMNSLKPEDTAVYDCAVYRLSWIGSVQYEYWGQGTQVTVSS	high polyreactivity
QVQLVESGGGLVQAGGSLRLSSAASGRIFYQYAMGWYRQAPGKERELVASISRSGTRTYYADSVKGRFTISRDNAKNTVYLQMISLKPEDTAVYYCAARGRASVERRGGYYYWGQGTQVTVSS	high polyreactivity
QVQLVESGGGLVQAGGSLRLSSAASGRIIKIYAMGWYRQAPGKERELVAAISGRGGSTYYADSVKGRFTISRDNAKYTVYLQMNSLKPEDTAVYYCAAVGYGFSAYSTYDYWGQGTQVTVSS	high polyreactivity
QVQLVESGGGLVQAGGSLRLSSAASGRLFSEYAMGWYRQAPGKERELVAAISRRGGRTYYADSVKGRFTISRDNAKNTVYVQMNSLIPEDTAVYYCAADHGDPGGYDYWGQGSQVTVSS	high polyreactivity
QVQLVESGGGLVQAGGSLRLSSAASGRNFYANAMGWSRQAPGKERYFVAAISWGGGSTNYADSVKGRFTISRDNAKNTGYLQKNSQKPEDTAVYYCATGFYYYLTKTIPYEYEYWGLGTQVTVSS	low polyreactivity
QVQLVESGGGLVQAGGSLRLSSAASGRTFDFYAMGWYRQAPGKERELVAAITGSDTSTYYADSVKGRFTISRDNAKNTVYLQMNSLKPEDTAVYYCAADGQWAYTVDPYVIYYRLDYWGQGTQVTVSS	low polyreactivity
QVQLVESGGGLVQAGGSLRLSSAASGRTFDRNAMGWYRQAPGKERELVAGITRSGDSTYADSVKGRFTISRDNAKITVYLQMNSLKPEDTAVYYCNKEGTVGGTRGYWGQGTQVTVSS	low polyreactivity
QVQLVESGGGLVQAGGSLRLSSAASGRTFGVNAMGWYRQAPGKERELVASISWGGGSTYYADSVKGRFTISRDNAKNTVYLQMNSLKPEDTAVYFCNRAYVRYVPMNYWGQGTQVTVSS	high polyreactivity
QVQLVESGGGLVQAGGSLRLSSAASGRTFQRNVMGWYRQAPGKDRELVAAISSSGGGTYYADSVKGRFTISRDNAKNTVYLQMNSLKPEDTAVYYCAARYRSYGGYGYYYWGLGTQVTVSS	high polyreactivity
QVQLVESGGGLVQAGGSLRLSSAASGRTFSGYAMGWYRQAPGKERELVASISGSGSSTYYADSVKGRFTISRDNAMNTVYLQMNSLKPEDTAVYYCAKRSFYYRIQTGYNYWGQGTQVTVSS	high polyreactivity
QVQLVESGGGLVQAGGSLRLSSAASGRTFVINAMGWYRQAPGKERELVAAITWGGGSTYYADSVKGRFTISRDNAKNTVYLQMNSLKQEDSAVYYCATSYSVQYGGSGYYWGQGTQVTVSS	low polyreactivity
QVQLVESGGGLVQAGGSLRLSSAASGRTFYYNAMGWYRQAPGKEREFVAVMTSSGGSTYYADSVKGRFTISRDNAKNTVYLQMNSLKPEDTAVYYSAASNTEQQLVVLIEVYYTRYDYWGQGTQETVSS	low polyreactivity
